Target: T1, IKKβ, endogenous, in Rat-1 and 5R cell extracts (rat (from the cell line Rat-1; not …, UniProt Q9QY78 1-757)
T1 construct: Endogenous protein of a cell extract; also called IKK-beta
T1 sequence (looked up): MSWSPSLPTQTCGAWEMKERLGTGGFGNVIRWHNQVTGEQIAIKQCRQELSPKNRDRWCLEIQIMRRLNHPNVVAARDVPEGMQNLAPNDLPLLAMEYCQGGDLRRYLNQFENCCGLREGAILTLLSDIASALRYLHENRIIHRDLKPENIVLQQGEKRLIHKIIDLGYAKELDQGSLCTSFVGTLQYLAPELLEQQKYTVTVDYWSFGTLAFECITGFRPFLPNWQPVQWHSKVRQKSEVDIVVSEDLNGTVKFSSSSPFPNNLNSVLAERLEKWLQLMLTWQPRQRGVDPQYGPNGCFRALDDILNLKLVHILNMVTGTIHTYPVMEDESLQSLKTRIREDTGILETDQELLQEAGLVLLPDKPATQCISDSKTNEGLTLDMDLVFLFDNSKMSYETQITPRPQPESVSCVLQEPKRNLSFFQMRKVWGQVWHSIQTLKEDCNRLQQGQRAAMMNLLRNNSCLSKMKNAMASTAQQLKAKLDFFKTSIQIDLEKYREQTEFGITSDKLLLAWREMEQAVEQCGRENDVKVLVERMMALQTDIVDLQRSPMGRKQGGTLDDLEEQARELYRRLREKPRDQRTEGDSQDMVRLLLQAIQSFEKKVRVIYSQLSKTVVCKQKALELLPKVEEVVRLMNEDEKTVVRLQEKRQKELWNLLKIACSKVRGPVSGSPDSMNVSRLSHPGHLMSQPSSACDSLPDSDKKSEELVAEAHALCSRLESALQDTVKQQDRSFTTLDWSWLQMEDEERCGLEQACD
Assay: glycerol gradient ultracentrifugation of cell extracts, co-migration
Procedure: Fractions (160 μl) were collected using the Piston Gradient Fractionator (Biocomp, Serlabo) and their absorbance at 280 nm was measured. To calibrate the gradient, standard proteins were applied to glycerol gradient and in parallel. The reproducibility of each glycerol gradient was also checked by measuring in each fraction the enzymatic activity of an endogenous marker, NDP kinase (110 kDa).

B1: NEMO (NF-κB essential modulator), endogenous, in Rat-1 cell extracts (other, UniProt Q6TMG5 1-412, looked up)
chain: MSRHLWKNQLSEMVQPSGGPAEDQDMLGEESSLGKPAMLHLPSEQGTPETLQRCLEENQELRDAIRQSNQMLRERCEELLHFQVSQREEKEFLMCKFQEARKLVERLSLEKLDLRRQREQALEDLEHLKKCQQQMAEDKASVKAQVTSLLGELQESQSRLEAATKERQTLEGRIRAVSEQVRQLESEREVLQQQHSVQVDQLRMQNQSVEAALRMERQAASEEKRKLAQLQAAYHQLFQDYDSHIKSSKGMQLEDLRQQLQQAEEALVAKQELIDKLKEEAEQHKIVMETVPVLKAQADIYKADFQAERHAREKLVERKELLQEQLEQLQREFNKLKVGCHESARIEDMRKRHVETSQPPLLPAPAHHSFHLALSNQRRSPPEEPPDFCCPKCQYQAPDMDTLQIHVMECIE
notes: Endogenous protein of a cell extract; also called IKK gamma
  binding result: binds

From patent US20080050763A1 (INSTITUT PASTEUR, published 2008)
